Reference: the supplement of paper PMC10567573

B1: P2RY14 (parent)
chain: KKIFKSHLKSSRNSTSVKKKSSRN
B2: PPEF2 (parent)
chain: DHSGFISLDEFRQTWKLFSSHMNI

Variants of: B1
Assay: protein stability index of a GFP-peptide fusion (GPS, HEK-293T) (PSI 1-6); higher = more stable
Conditions: c terminus: a fixed tail appended
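Also: lentivirally expressed fusions sorted by FACS into six bins by GFP to DsRed ratio, PSI derived from sequencing read proportions per bin multiplied by bin number.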

Protein stability index: each site, then its substitutions
L8: G 4.49, V 4.14, R 4.14, Y 3.59

Variants of: B2
Assay: as above
Conditions: c terminus: a fixed tail appended

Protein stability index: each site, then its substitutions
N23: S 2.26, V 3.85, L 2.3, G 1.73, K 1.96, E 2.82, Y 2.57, W 2.08, P 1.84, Q 1.86, H 2.16, C 2.72, I 2.18, T 2.83, F 3.35, D 1.69, M 2.57, R 1.31
K16: W 3.62, Q 1.74, T 3.38, V 2.6, N 1.69, P 2.07, H 1.74, I 3.37, R 2.02, M 1.01, S 1.81, L 3.93, Y 3.45
F18: C 2.02, Y 2.56, P 1.96, Q 1.72, H 1.55, D 2.57, R 1.8, S 2.14, T 1.82, V 1.91, I 2.51, E 1.88, W 1.87, K 2.21, G 2.48, N 2.12, A 1.96, L 1.46, M 1.64
M22: N 1.62, C 2.98, G 2.17, R 1.91, P 2.6, I 2.02, A 1.88, L 1.79, E 2.19, Y 2.21, H 1.61, D 2.41, F 2.32, K 2.1, V 1.51, W 2.49, S 1.55, T 1.6, Q 1.88
H21: Q 1.06, K 1.63, I 2.54, S 1.86, W 2.02, C 2.9, Y 1.49, M 1.49, D 1.91, N 2.01, V 2.84, F 2.27, R 2.23, G 2.22, P 2.11, E 2.06, L 1.74, T 2.09, A 1.63
I24: R 1.63, G 1.98, L 1.9, Q 1.78, P 1.87, S 1.58, M 2.04, T 1.89, K 1.79, W 2.35, H 1.7, V 2.01, Y 2.04, F 1.9, E 1.99, D 1.96, N 1.8, C 1.55, A 1.96
S20: W 3.78, F 2.44, I 2.75, G 2.92, M 2.81, L 2.03, H 1.63, V 3, T 1.85, D 2.15, P 1.96, Y 2.47, R 2.16, K 1.81, N 1.71, E 2.43, Q 1.83, A 2.14
L17: D 2.27, G 1.5, E 2.11, A 2.07, W 1.29, P 1.55, F 3.02, Y 2.03, H 1.66, I 3.24, K 1.81, R 1.62, N 1.87, V 1.36, T 1.88, M 2.63, Q 1.58, S 2, C 1.59
S19: P 1.82, F 2.32, G 1.81, D 1.56, I 2.22, T 2.55, N 1.07, K 1.85, R 1.7, M 1.78, Q 2.02, V 2.26, A 1.56, W 1.87, L 1.46, E 1.3, H 1.88, Y 1.7, C 1.54
